Experimental data as given in US20230117827A1, “COMPOSITION COMPRISING A FLUOROPHORE LABELLED UPAR-TARGETING PEPTIDE CONJUGATE” (FLUOGUIDE A/S, priority 2020, published 2023).

Legend:
Format in all cases: physicochemical
[1] = Solubilization of composition 1 judged by absorbance and emission spectra
Procedure: A composition comprising the fluorophore labelled receptor-targeting peptide conjugate ICG-Glu-Glu-AE105 (called composition 1 below) is soluble in DMSO in concentrations up to 20 mg/ml with a peak spectral absorption at 800 nm similar to indocyanine green (ICG) currently used in the clinic for visual assessment of vessels, blood flow and related tissue perfusion, fig. A.
An aqueous formulation of composition 1 of 1.0 mg/ml has been developed according to the present invention, using excipients suitable for pharmaceutical formulation development.
A. Excitation was conducted at 775 nm.
Further Explanation of the Figs. A-D A. Absorbance and emission spectrum of FG001 dissolved in DMSO and PBS at 1.0 mg/ml. Excitation wavelength: 775 nm. Analytical samples for absorbance measurement were further diluted 200-fold and 400-1000-fold for emission spectra. B. Absorbance spectrum of FG001 dissolved in 1) 10 mM sodium phosphate, 45 mg/ml mannitol, pH 7.4, 2) 10 mM sodium phosphate, 45 mg/ml mannitol, 1% Polysorbate 20, pH 7.4 and 3) PBS, 0.2 g/ml HBC. Analytical samples for absorbance measurement were further diluted 200-fold and 400-1000-fold for emission spectra C. […] Excitation wavelength: 775 nm. Analytical samples for absorbance measurement were further diluted 200-fold and 400-1000-fold for emission spectra

[2] = Long term storage stability of lyophilizate, purity by RP-HPLC; settings: for Purity, main peak following storage at 5° C. / Purity, main peak following storage at 25° C./60% RH / Purity, main peak following storage at 40° C./75% RH: 780 nm
Procedure: (§1) The long term stability of composition 1 at a concentration of 1.0 mg/ml was evaluated as a lyophilizate in one formulation comprising 10 mM sodium phosphate, 26 mg/ml mannitol, 9.0 mg/ml glycine, 0.025% Polysorbate 20, pH 7.4 Composition 1 was weighed into the formulation buffer and pH was adjusted to 7.4 using sodium hydroxide or hydrochloric acid. The bulk formulation was sterile filtered through suitable sterile filters and filled into 6R vials. The vials were placed with stoppers in a lyophilizer and lyophilized using a standard program. Following lyophilization all vials were capped, visual inspected and stored protected from light at 5° C., 25° C./60% RH or 40° C./75% RH for up to 9 months
(§2) At the selected timepoint, a vial is removed from the stability chamber for visual inspection of the lyophilizate and water content determination. Another vial is reconstituted with water for injection prior to analyzing the corresponding liquid formulation for purity, pH and visual appearance.
RP-HPLC to detect purity of reconstituted composition 1: Mobile phase A was composed of purified water/acetonitrile (80/20 v/v) with 5 mM ammonium acetate and mobile phase B was composed of purified water/acetonitrile (10/90 v/v) with 5 mM ammonium acetate. A Waters XBridge BEH Peptide, 3.5 μm, 130Å, 4.6×150 mm column was used. Flow rate was set to 1.0 mL/min,detection was at a wavelength of 780 nm, the column running temperature was 45° C. The sample cooler temperature was set at 5° C. and the sample injection load was 10 μg.

[3] = Long term storage stability, water content of lyophilizate by Karl Fisher titration
Procedure: as §1, §2
The water content of the lyophilizate was determined by Karl Fisher titration according to Ph. Eur. 2.5.32.

[4] = Long term storage stability, visual inspection and pH; settings: for pH: reconstituted
Procedure: as §1, §2

[5] = Example 4 lyophilizate, 0 months
[6] = Example 4 lyophilizate, 1 months
[7] = Example 4 lyophilizate, 3 months
[8] = Example 4 lyophilizate, 6 months
[9] = Example 4 lyophilizate, 9 months
[10] = storage at 25° C./60% RH, 0 months
[11] = storage at 25° C./60% RH, 1 months
[12] = storage at 25° C./60% RH, 3 months
[13] = storage at 25° C./60% RH, 6 months
[14] = storage at 25° C./60% RH, 9 months

In the case of `CC(C)C[C@H](NC(=O)[C@H](Cc1ccc(O)cc1)NC(=O)C(CCCNC(=N)N)NC(=O)C(CO)NC(=O)C(Cc1ccccc1)NC(=O)[C@H](CC1CCCCC1)NC(=O)C(CC(=O)O)NC(=O)C(CCC(=O)O)NC(=O)C(CCC(=O)O)NC(=O)CCCCCN1\C(=C/C=C/C=C/C=C/C2=[N+](CCCCS(=O)(=O)[O-])c3ccc4ccccc4c3C2(C)C)C(C)(C)c2c1ccc1ccccc21)C(=O)N[C@@H](Cc1c[nH]c2ccccc12)C(=O)N[C@@H](CO)C(=O)O` (stereo partly drawn) [composition 1, ICG-Glu-Glu-AE105], the peak absorption ([1]; 10 mM sodium phosphate, 45 mg/ml mannitol, pH 7.4) is reported as “shifted towards the peak absorption at 800 nm”, the solubility ([1]; DMSO, read-out: soluble in DMSO in concentrations) is reported as at most 20 mg/mL and the peak spectral absorption ([1]; in DMSO) is reported as 800 nm. The “spectral absorption in the range from 700 nm to 825 nm” value ([1]; phosphate buffer saline, 1.0 mg/ml) was “clear double peak”, the emission spectrum ([1]; phosphate buffer saline, 1.0 mg/ml, excitation 775 nm) was “significantly lower fluorescent peak at 800 nm” and the “solubility in phosphate buffer saline” value ([1]; tested concentration 1.0 mg/ml) was “not soluble”. For the same molecule, the “Purity, main peak following storage at 5° C.” value (“Purity … at 5° C.” below) ([2]; Example 4 lyophilizate (mannitol/glycine/0.025% Polysorbate 20), 0 months) was 96.6 area %, the “Purity, main peak following storage at 25° C./60% RH” value (shortened to “Purity … at 25° C./60% RH”) [2, 5] was 96.6 area % and the “Purity, main peak following storage at 40° C./75% RH” value (“Purity … at 40° C./75% RH” for short) [2, 5] was 96.6 area %. The “Purity … at 5° C.” value [2, 6] was 96.2 area %, the “Purity … at 25° C./60% RH” value [2, 6] was 96.2 area % and the “Purity … at 40° C./75% RH” value [2, 6] was 96.0 area %. The “Purity … at 5° C.” value [2, 7] was 96.5 area %, the “Purity … at 25° C./60% RH” value [2, 7] was 96.6 area % and the “Purity … at 40° C./75% RH” value [2, 7] was 95.9 area %. The “Purity … at 5° C.” value [2, 8] was 96.3 area %, the “Purity … at 25° C./60% RH” value [2, 8] was 95.6 area % and the “Purity … at 40° C./75% RH” value [2, 8] was 93.9 area %. For the same molecule, the “Purity … at 5° C.” value [2, 9] was 96.2 area %, the “Purity … at 25° C./60% RH” value [2, 9] was 96.2 area % and the “time shown to be stable, judged by the purity determination” value ([2]; selected formulation, storage conditions 5° C. and 25° C./60% RH) was “up to 9 months”. For the same molecule, the residual water content ([3]; following 9 months storage at 25° C./60% RH) was “around 2%”, the Residual water ([3]; storage at 5° C., 0 months) was 1.0% and the Residual water ([3]; storage at 5° C., 1 months) was 1.2%. For the same molecule, the Residual water ([3]; storage at 5° C., 3 months) was 1.8%, the Residual water ([3]; storage at 5° C., 6 months) was 1.7% and the Residual water ([3]; storage at 5° C., 9 months) was 1.6%. It also gave a Residual water [3, 10] of 1.0%, a Residual water [3, 11] of 1.8% and a Residual water [3, 12] of 1.7%. The Residual water [3, 13] was 1.7%, the Residual water [3, 14] was 1.9% and the pH ([4]; storage at 5° C., 0 months) was 7.4. For the same molecule, the pH ([4]; storage at 5° C., 1 months) was 7.3, the pH ([4]; storage at 5° C., 3 months) was 7.4 and the pH ([4]; storage at 5° C., 6 months) was 7.3. The pH ([4]; storage at 5° C., 9 months) was 7.4, the pH [4, 10] was 7.4 and the pH [4, 11] was 7.3. For the same molecule, the pH [4, 12] was 7.4, the pH [4, 13] was 7.3 and the pH [4, 14] was 7.4. The “pH, appearance of the lyophilizate and clarity of reconstituted liquid formulation” value ([4]; up to 9 months storage) was “remains unchaged”.
